We go through five molecules from article PMC2432501, “Binding to the Minor Groove of the Double-Strand, Tau Protein Prevents DNA from Damage by Peroxidation”.

Data set [1] concerns the target T1, tau23 (human, UniProt P10636-2 1-352). Put plainly: AFM; protein/DNA 8/1; particle 8.54 nm vs 7.82 nm tau alone; 20 mM Tris pH 7.2, 50 mM NaCl, 0.5 mM DTT, 1 mM MgCl2, 0.5 mM EDTA, room temperature 20-30 min; native PAGE in 1xTBE (20% gel at 4 C, or 8% for the 26 bp assay). As to conditions: protein: recombinant; 5' overhang 1 nt at both ends.
In data set [2] the target is T1, tau23. The experiment in a line: EMSA; marked shift from [protein]/[DNA] 1/2; 2.5 uM DNA; 20 mM Tris pH 7.2, 50 mM NaCl, 0.5 mM DTT, 1 mM MgCl2, 0.5 mM EDTA, room temperature 20-30 min; native PAGE in 1xTBE (20% gel at 4 C, or 8% for the 26 bp assay). As to conditions: protein: recombinant; blunt. (In general: In EMSA bound probe runs differently from free probe, usually more slowly.)

The target in data set [3] is T1, tau23. Put plainly: EMSA; 20 mM Tris pH 7.2, 50 mM NaCl, 0.5 mM DTT, 1 mM MgCl2, 0.5 mM EDTA, room temperature 20-30 min; native PAGE in 1xTBE (20% gel at 4 C, or 8% for the 26 bp assay). As to conditions: protein: recombinant; 5' overhang 1 nt at both ends.
Data set [4] concerns the target T1, tau23. The experiment in a line: EMSA; retardation depends on tau/DNA ratio; 20 mM Tris pH 7.2, 50 mM NaCl, 0.5 mM DTT, 1 mM MgCl2, 0.5 mM EDTA, room temperature 20-30 min; native PAGE in 1xTBE (20% gel at 4 C, or 8% for the 26 bp assay). As to conditions: protein: recombinant; 5' overhang 1 nt at both ends.
The target in data set [5] is T1, tau23. Put plainly: EMSA; shift from [tau]/[bp] 1/100, greatest at 1/3; 20 mM Tris pH 7.2, 50 mM NaCl, 0.5 mM DTT, 1 mM MgCl2, 0.5 mM EDTA, room temperature 20-30 min; native PAGE in 1xTBE (20% gel at 4 C, or 8% for the 26 bp assay). As to conditions: protein: recombinant; 5' overhang 1 nt at both ends.

T1 sequence (P10636 other isoform, or with tags, fused parts or gaps): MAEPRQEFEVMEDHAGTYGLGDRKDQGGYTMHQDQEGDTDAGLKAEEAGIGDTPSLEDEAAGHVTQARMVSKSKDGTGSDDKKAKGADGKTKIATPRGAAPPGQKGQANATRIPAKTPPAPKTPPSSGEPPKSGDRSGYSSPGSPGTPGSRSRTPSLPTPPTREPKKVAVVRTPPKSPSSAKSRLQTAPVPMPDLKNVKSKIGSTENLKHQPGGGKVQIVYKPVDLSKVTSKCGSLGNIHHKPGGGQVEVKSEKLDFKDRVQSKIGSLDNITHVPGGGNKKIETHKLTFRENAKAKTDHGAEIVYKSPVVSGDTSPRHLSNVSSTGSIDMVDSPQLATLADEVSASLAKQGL

B1: 12 bp DNA (dsDNA)
DNA 1: AGTGCATAAATAA
DNA 2: CTTATTTATGCAC
For B1, the binding result in data set [1] is listed as “no binding”.

B2: 20 bp DNA (dsDNA)
DNA 1: AACGAGAAGCGCGATCACAT
DNA 2: ATGTGATCGCGCTTCTCGTT
Turning to B2, in data set [2], the binding result was “binds”.

B3: 13 bp DNA (dsDNA)
DNA 1: ACGTGCATAAATAA
DNA 2: CTTATTTATGCACG
In the case of B3, the binding result in data set [3] is “binds”.

B4: 14 bp DNA (dsDNA)
DNA 1: ACCGTGCATAAATAA
DNA 2: CTTATTTATGCACGG
On to B4, for which the binding result in data set [4] is given as “binds”.

B5: 26 bp DNA (dsDNA)
DNA 1: ACTCCGTGCATAAATAATAGGCACTCG
DNA 2: CCGAGTGCCTATTATTTATGCACGGAG
As to B5, the binding result in data set [5] is reported as “binds”.
